Assay results: PMC4947157

Tests used:
FANCD2;FANCI [1] = target: T1, FANCD2;FANCI (Homo sapiens;Homo sapiens, UniProt Q9BXW9;Q9NVI1 1-1451;1-1328, |); assay: EMSA; supershifted by anti-HA; 0.5 ug protein, 1 nM DNA; titrated 0.125-0.5 ug; EMSA: 25 mM Tris-HCl pH 7.5, 100 mM NaCl, 6% glycerol, 1 mM DTT, 10 ul, room temperature 1 h; 4% PAGE in 0.4x TBE at 4 C
FANCD2;FANCI [2] = target: T1, FANCD2;FANCI; assay: EMSA; 0.5 ug protein, 1 nM DNA; significantly stronger than non-crosslinked fork; titrated 0.125-0.5 ug; EMSA: 25 mM Tris-HCl pH 7.5, 100 mM NaCl, 6% glycerol, 1 mM DTT, 10 ul, room temperature 1 h; 4% PAGE in 0.4x TBE at 4 C

T1 sequence (Q9BXW9 whole entry, chain 1 of 2): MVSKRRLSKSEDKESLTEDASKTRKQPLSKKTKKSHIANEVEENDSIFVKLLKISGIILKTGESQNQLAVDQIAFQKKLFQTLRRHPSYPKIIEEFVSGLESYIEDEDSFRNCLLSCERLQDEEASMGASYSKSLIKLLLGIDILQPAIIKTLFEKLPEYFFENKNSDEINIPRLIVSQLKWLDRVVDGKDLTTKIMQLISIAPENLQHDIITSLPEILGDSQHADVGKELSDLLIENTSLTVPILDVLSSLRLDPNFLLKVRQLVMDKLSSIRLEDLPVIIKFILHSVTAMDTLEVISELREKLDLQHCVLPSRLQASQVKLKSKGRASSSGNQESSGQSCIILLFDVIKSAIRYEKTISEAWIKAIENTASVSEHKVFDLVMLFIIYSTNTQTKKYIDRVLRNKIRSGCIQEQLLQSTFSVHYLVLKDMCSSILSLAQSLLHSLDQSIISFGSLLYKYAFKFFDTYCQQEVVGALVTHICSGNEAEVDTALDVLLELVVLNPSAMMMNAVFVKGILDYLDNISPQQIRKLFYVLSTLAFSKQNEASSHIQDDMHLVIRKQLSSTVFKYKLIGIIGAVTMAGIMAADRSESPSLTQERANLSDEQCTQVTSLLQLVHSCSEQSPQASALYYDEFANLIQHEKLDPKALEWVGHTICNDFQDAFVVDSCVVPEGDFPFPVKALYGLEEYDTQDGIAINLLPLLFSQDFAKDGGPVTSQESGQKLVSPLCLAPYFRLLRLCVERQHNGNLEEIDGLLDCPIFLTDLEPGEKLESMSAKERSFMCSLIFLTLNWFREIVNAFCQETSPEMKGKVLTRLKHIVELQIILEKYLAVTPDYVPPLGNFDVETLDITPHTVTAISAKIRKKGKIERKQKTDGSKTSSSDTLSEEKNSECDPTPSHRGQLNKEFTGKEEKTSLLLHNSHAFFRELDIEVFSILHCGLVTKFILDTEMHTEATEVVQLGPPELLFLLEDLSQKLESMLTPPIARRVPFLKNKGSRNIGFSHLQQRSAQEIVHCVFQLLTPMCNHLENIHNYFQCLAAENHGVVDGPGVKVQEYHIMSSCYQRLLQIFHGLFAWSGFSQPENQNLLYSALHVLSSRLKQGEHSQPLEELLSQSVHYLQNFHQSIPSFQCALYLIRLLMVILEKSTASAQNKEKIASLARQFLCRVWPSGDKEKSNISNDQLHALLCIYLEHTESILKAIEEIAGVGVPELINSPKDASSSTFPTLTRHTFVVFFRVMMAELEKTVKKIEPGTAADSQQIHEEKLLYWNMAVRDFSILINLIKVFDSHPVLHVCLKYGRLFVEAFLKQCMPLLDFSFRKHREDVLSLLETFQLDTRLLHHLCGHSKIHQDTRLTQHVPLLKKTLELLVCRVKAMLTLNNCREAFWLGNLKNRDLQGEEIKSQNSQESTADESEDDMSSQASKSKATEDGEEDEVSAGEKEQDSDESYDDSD
T1 sequence (Q9NVI1 whole entry, chain 2 of 2): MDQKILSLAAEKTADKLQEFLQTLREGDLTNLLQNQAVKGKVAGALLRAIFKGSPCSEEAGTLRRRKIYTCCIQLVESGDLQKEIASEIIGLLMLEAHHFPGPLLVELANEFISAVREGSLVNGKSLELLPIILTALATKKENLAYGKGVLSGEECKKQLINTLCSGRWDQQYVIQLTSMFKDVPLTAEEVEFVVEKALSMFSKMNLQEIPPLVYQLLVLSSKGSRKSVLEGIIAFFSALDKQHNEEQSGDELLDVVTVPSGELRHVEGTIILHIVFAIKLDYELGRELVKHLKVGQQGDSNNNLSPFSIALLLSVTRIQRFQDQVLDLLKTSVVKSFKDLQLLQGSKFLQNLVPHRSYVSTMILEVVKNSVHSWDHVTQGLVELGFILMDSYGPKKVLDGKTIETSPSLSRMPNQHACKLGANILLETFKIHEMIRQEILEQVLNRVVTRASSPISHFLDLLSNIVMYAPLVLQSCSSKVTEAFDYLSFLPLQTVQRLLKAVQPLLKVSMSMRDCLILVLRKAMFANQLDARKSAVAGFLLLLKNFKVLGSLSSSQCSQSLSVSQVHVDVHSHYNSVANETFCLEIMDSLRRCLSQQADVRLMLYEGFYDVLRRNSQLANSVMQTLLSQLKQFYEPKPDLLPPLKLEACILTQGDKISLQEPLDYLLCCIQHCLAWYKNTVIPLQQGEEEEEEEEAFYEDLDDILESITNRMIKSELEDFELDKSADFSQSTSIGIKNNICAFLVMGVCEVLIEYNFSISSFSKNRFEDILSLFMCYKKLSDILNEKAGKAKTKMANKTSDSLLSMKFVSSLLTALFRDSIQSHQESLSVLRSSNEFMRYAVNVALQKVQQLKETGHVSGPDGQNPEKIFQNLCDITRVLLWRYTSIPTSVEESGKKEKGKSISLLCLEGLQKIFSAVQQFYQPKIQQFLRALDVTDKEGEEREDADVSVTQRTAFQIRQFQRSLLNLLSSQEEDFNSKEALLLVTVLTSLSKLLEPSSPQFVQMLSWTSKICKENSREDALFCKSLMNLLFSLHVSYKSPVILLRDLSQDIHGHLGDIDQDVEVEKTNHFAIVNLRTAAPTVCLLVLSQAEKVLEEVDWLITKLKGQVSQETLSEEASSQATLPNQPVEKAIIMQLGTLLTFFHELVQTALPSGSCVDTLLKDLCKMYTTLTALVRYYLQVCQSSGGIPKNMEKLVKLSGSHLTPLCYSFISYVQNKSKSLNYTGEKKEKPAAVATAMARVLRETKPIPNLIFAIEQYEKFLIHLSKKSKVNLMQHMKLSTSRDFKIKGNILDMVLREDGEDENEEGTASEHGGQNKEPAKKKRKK

B1: ICL14FF (dsDNA)
DNA 1: CATTGTGAATTCGCCTCTCTGTCTAGCCGAAGCTCGAAACGATCTTGTGC
DNA 2: GTCCATCAAAGTTCGACTGTGCGGCTAGACAGAGAGGCGAATTCACAATG
DNA 3: GCACAAGATCGTTTCGAGCTT
DNA 4: GTCGAACTTTGATGGAC
Q: Does B1 bind (FANCD2;FANCI [1])?
A: binds

B2: ICL14FF-XL (dsDNA)
DNA 1: CATTGTGAATTCGCCTCTCTGTCTAGCCGAAGCTCGAAACGATCTTGTGC
DNA 2: GTCCATCAAAGTTCGACTGTGCGGCTAGACAGAGAGGCGAATTCACAATG
DNA 3: GCACAAGATCGTTTCGAGCTT
DNA 4: GTCGAACTTTGATGGAC
modifications: 4,5',8-trimethylpsoralen (TMP) interstrand crosslink between S5 and S6; crosslinked bases bold in original, not recoverable from text
Q: Does B2 bind (FANCD2;FANCI [2])?
A: binds
